No end group written: not given here. AF488 = AF Dye 488 fluorescent label

The target of experiment [1] is T1, monomeric GATE16 (mGATE16) (UniProt P60520 1-117).
T1 construct: GATE16, LC3/GABARAP-family protein, from pGex-4T-2_GATE-16 after thrombin cleavage; source: E. coli BL21 Tuner DE3, purified as GST-GATE16, GST removed with thrombin, SEC
Nature of the experiment: fluorescence polarisation; competition anisotropy: 1.5 μM mGATE16 with 10 nM labeled ATG4B peptide; increasing unlabeled peptide; 20 mM Tris, 150 mM NaCl, pH 7.5; RT. The note with it: both partners purified. (In general: Fluorescence polarisation rises when a labelled molecule tumbles more slowly, as on binding a larger partner.)

The next experiment has as its target T2, His6-GATE16 (UniProt P60520 1-117).
T2 construct: GATE16, LC3/GABARAP-family protein; also called monomeric His6-GATE16; His6-tagged GATE16; source: E. coli BL21 Tuner DE3, purified (Ni-NTA, SEC)
Nature of the experiment: fluorescence polarisation; direct anisotropy: 10 nM labeled ATG4B peptide with increasing His6-GATE16; 20 mM Tris, 150 mM NaCl, pH 7.5; RT; apparent KD. Particulars: both partners purified.

T2 sequence (P60520 whole entry): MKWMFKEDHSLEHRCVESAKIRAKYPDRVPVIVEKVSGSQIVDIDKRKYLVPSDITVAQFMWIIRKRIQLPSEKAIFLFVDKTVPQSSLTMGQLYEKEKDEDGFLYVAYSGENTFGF
T1 sequence (P60520 whole entry): as above

B1: dye-labeled ATG4B LIR peptide (EDEDFEILSL) (peptide)
peptide: AF488-EDEDFEILSL
notes: also called fluorescently labeled ATG4B peptide; labeled ATG4B peptide; source: synthetic peptide (MIT Biopolymers Laboratory, HPLC-purified)
Take B1: the binding result (in experiment [1]; with His6-GATE16) was “binds” throughout.
